Test results as given in FireProtDB (doi:10.1021/bi00444a012).

Settings: Bacillus amyloliquefaciens; pH 8; Thermal; DSC; Tris-HCl 5.0 mM; KCl 50 mM; reversible: yes; whole UniProt chain shown

B1: Subtilisin BPN' wild type, P00782 (protein)
chain: MRGKKVWISLLFALALIFTMAFGSTSSAQAAGKSNGEKKYIVGFKQTMSTMSAAKKKDVISEKGGKVQKQFKYVDAASATLNEKAVKELKKDPSVAYVEEDHVAHAYAQSVPYGVSQIKAPALHSQGYTGSNVKVAVIDSGIDSSHPDLKVAGGASMVPSETNPFQDNNSHGTHVAGTVAALNNSIGVLGVAPSASLYAVKVLGADGSGQYSWIINGIEWAIANNMDVINMSLGGPSGSAALKAAVDKAVASGVVVVAAAGNEGTSGSSSTVGYPGKYPSVIAVGAVDSSNQRASFSSVGPELDVMAPGVSIQSTLPGNKYGAYNGTSMASPHVAGAAALILSKHPNWTNTQVRSSLENTTTKLGDSFYYGKGLINVQAAAQ
Tm: 58.5 °C | heat capacity change of unfolding: 4.8 kcal/mol/K | unfolding enthalpy (calorimetric): 88.3 kcal/mol | unfolding enthalpy (van 't Hoff): 97 kcal/mol
